One protein from article PMC7159911 (Science Advances, 2020) can be followed below.

The series deals with the molecule itself. Put plainly: cryo-EM structure.

B1: rBAT (SLC3A1), human, N-terminal 10x His tag (natural protein, UniProt Q07837-1 1-685, looked up)
chain: MAEDKSKRDSIEMSMKGCQTNNGFVHNEDILEQTPDPGSSTDNLKHSTRGILGSQEPDFKGVQPYAGMPKEVLFQFSGQARYRIPREILFWLTVASVLVLIAATIAIIALSPKCLDWWQEGPMYQIYPRSFKDSNKDGNGDLKGIQDKLDYITALNIKTVWITSFYKSSLKDFRYGVEDFREVDPIFGTMEDFENLVAAIHDKGLKLIIDFIPNHTSDKHIWFQLSRTRTGKYTDYYIWHDCTHENGKTIPPNNWLSVYGNSSWHFDEVRNQCYFHQFMKEQPDLNFRNPDVQEEIKEILRFWLTKGVDGFSLDAVKFLLEAKHLRDEIQVNKTQIPDTVTQYSELYHDFTTTQVGMHDIVRSFRQTMDQYSTEPGRYRFMGTEAYAESIDRTVMYYGLPFIQEADFPFNNYLSMLDTVSGNSVYEVITSWMENMPEGKWPNWMIGGPDSSRLTSRLGNQYVNVMNMLLFTLPGTPITYYGEEIGMGNIVAANLNESYDINTLRSKSPMQWDNSSNAGFSEASNTWLPTNSDYHTVNVDVQKTQPRSALKLYQDLSLLHANELLLNRGWFCHLRNDSHYVVYTRELDGIDRIFIVVLNFGESTLLNLHNMISGLPAKMRIRLSTNSADKGSKVDTSGIFLDKGEGLIFEHNTKNLLHRQTAFRDRCFVSNRACYSSVLNILYTSC
modifications: five glycosylation sites in the extracellular domain (residues 111 to 685)
Consider B1, for which the stoichiometry N (in general, the number of molecules, sites or subunits per partner or assembly) came to 2.
